Measurements taken from patent US20240279345A1, “ALPHA 5 BETA 1 INTEGRIN BINDING AGENTS AND USES THEREOF” (PASITHEA THERAPEUTICS CORP., priority 2021, published 2024).
Changes are numbered by the printed parent chain. Names may count otherwise. One block for each molecule: values may come before it.

Columns and labels:
U87MG cell line = test: Plate-based cell adhesion assay of U87MG cells to FN; conditions: antibody 3 to 0.01 μg/mL
Method: Cell surface α5β1 integrin receptors interact with FN to promote cellular adhesion. To test whether the human IgG4 chimeric anti-α5β1 antibodies inhibit adhesion, a plate-based cell adhesion assay was developed for use with the U87MG cell line (HTB-14™, ATCC, Manassas, VA) which is derived from a Glioblastoma tumor and is known to express α5β1 integrin. U87MG cells were grown to 80% confluence in EMEM media (ATCC, Manassas, VA, cat. no. 30-2003) supplemented with 10% Fetal Bovine Serum (FBS; ATCC, Manassas, VA, cat. no. 30-2021) in a 5% C02, 37° C. incubator. Cells were dissociated from flasks with 0.05% Trypsin, 0.02% EDTA (Lifeline Cell Technology, Frederick, MD, cat. no. CM0017), washed once with Dulbecco's 1×PBS (DPBS) Modified which contains calcium and magnesium (HyClone, Logan, UT, cat. no. SH30028-02) and resuspended in EMEM media without supplementation at a cellular concentration of 2,000,000 cells per mL. Cells were rested in the incubator for 30 minutes before mixing with a six point 1:3 dilution series of the antibodies with final concentrations ranging from 3 to 0.01 μg/mL in a 96-well polypropylene round-bottom plate. 100,000 rested cells were pre-mixed with each dilution of antibody to a final volume of 100 μL and then transferred to a Human FN coated 96-well plate (R&D Systems, Minneapolis, MN, cat. no. CWP001). The cell-antibody mixtures were incubated for 1 hour at 37° C., 5% C02. Non-adhered cells were removed from the wells by inversion of the plate on an absorbent pad, then washed 2× with 200 uL each well with 1×DPBS without Calcium and Magnesium (EMD Millipore Corp, Billerica, MA, cat. no. TMS-012-A). 100 μL 1× DPBS containing Hoechst 33342 dye (Thermo Fisher Scientific, Waltham, MA, cat. no. 62249) at the recommended dilution (1:2000) was added to each well to fluorescently stain nuclei to facilitate cell counting. Cells that remained adhered to the wells were counted using image analysis software provided by the ImageXpress Pico Automated Cell Imaging System (Molecular Devices, San Jose, CA) which is based on counting fluorescently stained nuclei, in this case using a DAPI filter to detect the Hoechst nuclear staining. Non-linear regression analysis was used to fit curves (4-parameter) to the data using GraphPad Prism version 9.0.2 (GraphPad Software, LLC, San Diego, CA).

[1] = molecular target: α5β1 integrin on U87MG cells (human, UniProt P08648 42-1049; P05556 21-798); test: cell-based or functional assay
Sequence of α5β1 integrin on U87MG cells (P08648 42-1049 limits assumed, chain 1 of 2): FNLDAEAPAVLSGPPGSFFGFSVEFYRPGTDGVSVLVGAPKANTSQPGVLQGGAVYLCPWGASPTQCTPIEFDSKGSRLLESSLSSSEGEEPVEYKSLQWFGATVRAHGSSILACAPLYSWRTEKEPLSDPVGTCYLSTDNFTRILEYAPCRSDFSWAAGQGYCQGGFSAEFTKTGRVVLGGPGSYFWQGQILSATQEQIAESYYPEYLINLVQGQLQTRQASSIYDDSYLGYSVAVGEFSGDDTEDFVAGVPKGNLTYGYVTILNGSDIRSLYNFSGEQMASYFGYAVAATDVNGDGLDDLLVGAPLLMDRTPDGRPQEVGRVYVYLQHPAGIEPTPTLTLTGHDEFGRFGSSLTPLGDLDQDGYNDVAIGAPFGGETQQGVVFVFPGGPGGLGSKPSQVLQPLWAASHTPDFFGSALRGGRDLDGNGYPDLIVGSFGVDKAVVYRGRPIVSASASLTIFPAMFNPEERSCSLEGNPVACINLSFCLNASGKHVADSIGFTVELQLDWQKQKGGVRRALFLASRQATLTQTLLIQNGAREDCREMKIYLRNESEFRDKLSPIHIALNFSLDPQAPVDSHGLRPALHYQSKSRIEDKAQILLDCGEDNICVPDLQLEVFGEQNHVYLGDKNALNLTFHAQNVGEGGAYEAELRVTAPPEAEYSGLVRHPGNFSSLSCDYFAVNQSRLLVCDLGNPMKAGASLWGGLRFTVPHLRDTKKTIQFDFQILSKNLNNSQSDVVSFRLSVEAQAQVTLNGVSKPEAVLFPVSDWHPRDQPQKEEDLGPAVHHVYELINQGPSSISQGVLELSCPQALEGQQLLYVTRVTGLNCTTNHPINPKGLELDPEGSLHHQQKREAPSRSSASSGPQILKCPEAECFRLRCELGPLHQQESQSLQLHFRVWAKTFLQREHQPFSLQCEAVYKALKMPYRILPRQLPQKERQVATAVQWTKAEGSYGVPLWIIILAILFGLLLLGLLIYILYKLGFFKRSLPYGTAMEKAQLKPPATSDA
Sequence of α5β1 integrin on U87MG cells (P05556 21-798 limits assumed, chain 2 of 2): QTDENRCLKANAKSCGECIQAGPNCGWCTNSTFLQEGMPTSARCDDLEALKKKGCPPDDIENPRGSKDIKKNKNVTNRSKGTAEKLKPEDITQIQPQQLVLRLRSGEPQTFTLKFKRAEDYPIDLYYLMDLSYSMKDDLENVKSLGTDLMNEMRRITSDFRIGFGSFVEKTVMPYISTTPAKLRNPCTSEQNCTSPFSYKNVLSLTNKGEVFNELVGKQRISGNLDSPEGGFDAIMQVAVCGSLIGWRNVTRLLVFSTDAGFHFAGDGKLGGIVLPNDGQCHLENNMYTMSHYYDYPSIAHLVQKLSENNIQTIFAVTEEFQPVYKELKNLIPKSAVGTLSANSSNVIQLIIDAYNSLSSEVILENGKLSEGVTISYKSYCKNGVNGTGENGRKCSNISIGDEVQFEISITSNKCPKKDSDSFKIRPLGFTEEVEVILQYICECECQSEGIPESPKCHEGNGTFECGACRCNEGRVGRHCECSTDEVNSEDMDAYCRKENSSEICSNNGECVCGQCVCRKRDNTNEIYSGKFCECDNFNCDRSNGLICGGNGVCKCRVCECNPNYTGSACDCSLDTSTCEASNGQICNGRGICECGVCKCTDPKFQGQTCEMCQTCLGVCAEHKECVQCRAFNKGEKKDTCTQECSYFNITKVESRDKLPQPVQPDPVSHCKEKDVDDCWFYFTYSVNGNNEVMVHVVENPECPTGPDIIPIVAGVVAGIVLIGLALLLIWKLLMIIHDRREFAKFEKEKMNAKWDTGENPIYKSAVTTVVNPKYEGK

[2] = molecular target: T1, recombinant mouse α5β1 (rm-α5β1) (Mus musculus, UniProt P09055+P11688); test: Plate-based ELISA cross-reactivity to rm-α5β1; format: binding; conditions: hybridoma supernatant diluted 1:10; plate coated with rm-α5β1
T1 construct: purchased R&D Systems 7728-A5
Method: (§1) The 249 positive hybridoma supernatants selected as described in Example 1 were screened for reactivity to rh-α5β1 in a plate-based ELISA. Immulon4 HBX ELISA 96-well plates (Thermo Fisher Scientific, Waltham, MA, cat. no. 3855) were coated with rh-α5β1 (R&D Systems, Minneapolis, MN 55413, cat. no. 3230-A5), at 1 μg/mL in PBS supplemented with 0.5 mM MgCl2, MnCl2 and CaCl2 and incubated overnight at 4° C. Plates were washed 3 times with Wash Buffer (1× Tris Buffered Saline containing 0.05% Tween20), blocked with 2% BSA in 1×TBS (made from 10× Thermo Scientific Blocker BSA (10×) in TBS; Thermo Fisher Scientific, Waltham, MA, cat. no. 37520) for 2 hours at room temperature (RT) then incubated with hybridoma supernatants diluted 1:10 with Standard Diluent (2% BSA, 1×TBS, 0.05% Tween20). Following a 1 hour incubation at RT, wells were washed 3 times, incubated with biotinylated goat anti-mouse secondary antibody at 1:8000 dilution (Invitrogen, Carlsbad, CA, cat. no. 62-6540) for 1 hour, washed 3 times, then incubated for 30 minutes with poly-HRP Streptavidin (Thermo Fisher Scientific, Waltham, MA, cat. no. N200), washed 4 times, incubated with TMB (Thermo Fisher Scientific, Waltham, MA, cat. no. N301) for 5-10 minutes, followed by addition of ELISA Stop Solution (Invitrogen, Carlsbad, CA, cat. no. SS04). Absorbance 450 nm was measured.
In addition, hybridomas were tested for cross-reactivity to recombinant mouse α5β1 (rm-α5β1; R&D Systems, Minneapolis, MN 55413; cat. no. 7728-A5) using the same protocol as above except that the plates were coated with rm-α5β1.

rh-α4β1 = molecular target: T2, rh-α4β1 (Homo sapiens, UniProt P05556+P13612); test: Plate-based ELISA reactivity to rh-α4β1 (α5 subunit specificity); format: binding; conditions: hybridoma supernatant diluted 1:10; plate coated with rh-α4β1
T2 construct: purchased R&D Systems 3230-A5 & 5668-A4
T2 sequence (P13612 34-977 limits assumed): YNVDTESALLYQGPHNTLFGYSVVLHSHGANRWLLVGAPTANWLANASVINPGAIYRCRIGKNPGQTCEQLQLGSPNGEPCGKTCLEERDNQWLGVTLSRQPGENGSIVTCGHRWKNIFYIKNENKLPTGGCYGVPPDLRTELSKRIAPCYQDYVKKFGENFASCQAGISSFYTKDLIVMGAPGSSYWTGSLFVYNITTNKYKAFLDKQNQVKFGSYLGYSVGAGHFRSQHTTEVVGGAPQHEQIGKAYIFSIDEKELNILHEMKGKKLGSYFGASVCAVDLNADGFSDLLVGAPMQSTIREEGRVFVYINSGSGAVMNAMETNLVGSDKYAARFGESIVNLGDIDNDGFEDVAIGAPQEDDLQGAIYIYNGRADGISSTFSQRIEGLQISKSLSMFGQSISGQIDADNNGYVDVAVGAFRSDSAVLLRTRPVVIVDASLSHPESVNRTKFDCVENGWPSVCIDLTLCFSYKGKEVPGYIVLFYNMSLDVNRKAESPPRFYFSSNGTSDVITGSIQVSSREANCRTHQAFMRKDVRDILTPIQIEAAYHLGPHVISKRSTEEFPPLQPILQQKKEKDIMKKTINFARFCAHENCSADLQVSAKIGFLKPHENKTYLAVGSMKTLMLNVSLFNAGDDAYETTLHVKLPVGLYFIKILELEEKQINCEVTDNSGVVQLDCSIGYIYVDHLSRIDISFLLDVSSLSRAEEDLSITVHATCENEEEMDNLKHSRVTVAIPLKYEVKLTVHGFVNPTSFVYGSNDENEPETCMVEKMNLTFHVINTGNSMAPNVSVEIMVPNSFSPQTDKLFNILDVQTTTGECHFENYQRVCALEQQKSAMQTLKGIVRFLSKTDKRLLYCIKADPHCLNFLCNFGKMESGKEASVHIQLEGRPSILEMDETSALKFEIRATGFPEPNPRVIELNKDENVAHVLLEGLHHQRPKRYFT
T2 sequence (P05556 21-728 limits assumed): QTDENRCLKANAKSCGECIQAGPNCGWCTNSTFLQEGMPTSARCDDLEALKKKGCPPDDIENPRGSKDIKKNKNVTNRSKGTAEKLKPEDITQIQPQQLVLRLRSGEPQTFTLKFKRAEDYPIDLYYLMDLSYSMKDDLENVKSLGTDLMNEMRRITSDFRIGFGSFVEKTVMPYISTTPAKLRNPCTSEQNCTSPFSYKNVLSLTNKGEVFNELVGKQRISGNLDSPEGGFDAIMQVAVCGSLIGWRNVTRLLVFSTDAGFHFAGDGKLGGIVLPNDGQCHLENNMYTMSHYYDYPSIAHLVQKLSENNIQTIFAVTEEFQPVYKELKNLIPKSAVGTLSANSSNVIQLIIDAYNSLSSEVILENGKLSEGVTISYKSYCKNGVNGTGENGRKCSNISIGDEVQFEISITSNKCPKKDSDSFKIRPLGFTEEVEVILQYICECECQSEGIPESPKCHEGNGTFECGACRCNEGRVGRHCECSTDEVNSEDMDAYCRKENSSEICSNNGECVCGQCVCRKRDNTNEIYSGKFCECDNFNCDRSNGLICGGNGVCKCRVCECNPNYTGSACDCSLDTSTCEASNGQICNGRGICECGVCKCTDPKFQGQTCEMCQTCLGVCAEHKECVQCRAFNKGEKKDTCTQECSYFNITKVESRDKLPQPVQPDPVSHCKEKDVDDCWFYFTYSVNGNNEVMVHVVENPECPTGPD
Method: as §1
In parallel the 249 hybridomas were screened for specificity to the human α5 subunit by testing for reactivity to rh-α4β1 (R&D Systems, Minneapolis, MN 55413; cat. no. 3230-A5 & 5668-A4). Any hybridoma that reacted to both rh-α4β1 and rh-α5β1 is likely to be β1 subunit specific and not considered α5 specific. Using the protocol described above, 29 hybridoma supernatants reacted strongly (>1.0 Absorbance 450 nm) with rh-α4β1 and were not considered to be α5 specific.

[3] = molecular target: T3, recombinant human α5β1 integrin (rh-α5β1) (Homo sapiens, UniProt P05556+P08648); test: Plate-based ELISA reactivity to rh-α5β1; format: binding; conditions: selected for further characterization among α5 specific hybridomas (28 selected)
T3 construct: purchased R&D Systems 3230-A5
T3 sequence (P08648 42-894 limits assumed): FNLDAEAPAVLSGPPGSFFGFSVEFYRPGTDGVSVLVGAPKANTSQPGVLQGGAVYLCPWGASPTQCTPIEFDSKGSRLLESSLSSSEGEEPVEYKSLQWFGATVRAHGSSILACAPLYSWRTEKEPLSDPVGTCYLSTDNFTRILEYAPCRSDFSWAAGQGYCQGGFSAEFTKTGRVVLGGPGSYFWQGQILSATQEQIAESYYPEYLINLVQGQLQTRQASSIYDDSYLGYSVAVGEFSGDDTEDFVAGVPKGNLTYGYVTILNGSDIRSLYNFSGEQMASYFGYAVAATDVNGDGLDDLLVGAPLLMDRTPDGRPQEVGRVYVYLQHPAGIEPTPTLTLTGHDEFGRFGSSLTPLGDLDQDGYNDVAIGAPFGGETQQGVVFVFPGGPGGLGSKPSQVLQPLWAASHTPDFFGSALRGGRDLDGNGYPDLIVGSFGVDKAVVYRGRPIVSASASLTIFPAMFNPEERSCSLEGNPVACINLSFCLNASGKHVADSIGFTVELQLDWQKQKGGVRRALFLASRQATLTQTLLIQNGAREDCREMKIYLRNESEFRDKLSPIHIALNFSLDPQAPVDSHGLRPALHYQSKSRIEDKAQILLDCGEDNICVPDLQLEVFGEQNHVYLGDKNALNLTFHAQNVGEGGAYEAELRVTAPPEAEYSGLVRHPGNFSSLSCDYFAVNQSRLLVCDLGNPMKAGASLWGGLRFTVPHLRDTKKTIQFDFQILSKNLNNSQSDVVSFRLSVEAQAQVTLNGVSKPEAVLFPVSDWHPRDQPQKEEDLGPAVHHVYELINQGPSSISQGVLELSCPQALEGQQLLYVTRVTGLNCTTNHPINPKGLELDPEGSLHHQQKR
T3 sequence (P08648 895-995 limits assumed): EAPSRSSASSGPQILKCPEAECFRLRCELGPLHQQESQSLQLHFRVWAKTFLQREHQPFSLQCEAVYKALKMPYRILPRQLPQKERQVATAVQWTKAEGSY
T3 sequence (P05556 21-728 limits assumed): as the sequence (P05556 21-728 limits assumed) above
Method: as §1

rh-α5β1 = rh-α5β1 (Homo sapiens, UniProt P05556+P08648); test: Competition binding studies by Biolayer Interferometry (epitope groups); conditions: for Response (nm) / % Response: secondary mAb pre-mixed with 20 nM rh-α5β1; for % Response: relative to antigen alone
Sequence of rh-α5β1 (P08648 42-894 limits assumed): as the sequence (P08648 42-894 limits assumed) above
Sequence of rh-α5β1 (P08648 895-995 limits assumed): as the sequence (P08648 895-995 limits assumed) above
Sequence of rh-α5β1 (P05556 21-728 limits assumed): as the sequence (P05556 21-728 limits assumed) above
Method: Epitope analysis via competition binding studies was performed using Biolayer Interferometry (BLI) on the 6 antibodies selected as described in Example 5. The anti-α5β1 FN blocking antibodies A2-7A05, C-14D12 and A-15B08 were immobilized on sensors and incubated with each of the other antibodies that had been preincubated with rh-α5β1, to determine whether this antibody-antigen association prevents or allows binding to the antibody on the sensor. The magnitude of observed binding (response) was compared to binding of antigen alone under the same conditions. If the overall response was greater than 120% of antigen binding alone, then the antibodies can pair with each other. If response was less than 80% of response of antigen binding alone, then the antibodies block each other. The protocol was as follows: preincubate the panel of antibodies with antigen (1 hr). Equilibrate the sensor (30 seconds (s))-->Load lead Ab on the sensor (700s)--->Quench (480s)--->Read baseline (480s)-->measure preincubated Ab+Ag association with loaded sensor (600s).

IC50 (U87MG cell line): 0.15 µg/mL
% Inhibition [1]: 82%
Cell Counts (Curve Bottom) [1]: 6320 cells
Cell Counts (Curve Top) [1]: 35400 cells
B1: A-15B08-T62A IgG4 Chimera (antibody, V domains shown)
VH: QVQLKESGPGLVAPSQSLSITCTISGFSLTSYGVHWVRQPPGKGLEWLVVIWSDGSTTYNSALKSRLSISKDNSKSQVFFKMNSLQTDDTAMYYCARHYDYDGDWFAYWGQGTLVTVSA
VL: QIVLTQSPAIMSASLGERVTMTCTASSRVSSNSLHWYQQKPGSSPKLWIYSTSNLASGVPARFSGSGSGTSYSLTISSMEAEDAATYYCHQYLRSPPTFGGGTKLEIK

Absorbance 450 nm Mouse α5β1 [2]: 0.049
Absorbance 450 nm Human α4β1 (rh-α4β1): 0.0558
Selected Human α5 Specific [3]: Yes
binding of rh-α5β1 complexed with antibody to A2-7A05 on the sensor (rh-α5β1; antibody preincubated with rh-α5β1, A2-7A05 immobilized on sensor): able to bind
binding of rh-α5β1 complexed with antibody to A-15B08 on the sensor (rh-α5β1; antibody preincubated with rh-α5β1, A-15B08 immobilized on sensor): not able to bind
binding of rh-α5β1 complexed with antibody to C-14D12 on the sensor (rh-α5β1; antibody preincubated with rh-α5β1, C-14D12 immobilized on sensor): not able to bind
Response (nm) (rh-α5β1; immobilized mAb A2-7A05): 0.07 nm
% Response (rh-α5β1; immobilized mAb A2-7A05): 198.65%
Response (nm) (rh-α5β1; immobilized mAb A-15B08): 0.10 nm
% Response (rh-α5β1; immobilized mAb A-15B08): 50.05%
Response (nm) (rh-α5β1; immobilized mAb C-14D12): 0.12 nm
% Response (rh-α5β1; immobilized mAb C-14D12): 53.28%
epitope group (rh-α5β1; two epitope groups among 6 antibodies): second group
B2: A2-3B06: anti-α5β1 antibody, VH SEQ ID NO:42, VL SEQ ID NO:43 (antibody, V domains shown)
VH: QVQLKESGPGLVAPSQSLSITCTISGFSLTTYGVHWVRQPPGKGLEWLVVIWSDGSTTYNSALKSRLNITKDNSKSQVFLKMNSLQTDDTAMYYCVRHGGLLRRDAMDYWGQGTSVTVSS
VL: B1 VL with R28S, L34F, I49L
modifications: A2-3B06 VH Sequence; A2-3B06 VL Sequence

IC50 (U87MG cell line): 0.14 µg/mL
B3: C-14D12 IgG4 Chimera (antibody, V domains shown)
VH: QVQLKESGPDLVAPSQSLSITCTVSGFSLTDYGVHWVRQPPGKGLEWLVVIWSDGSTTYNSALKSRLSITKDTSKRQVFLKMNSLQTDDTAMYYCARHAPSFIRYGSRYDALDYWGQGTSVTVSS
VL: B1 VL with M21L, R28S, S30T, N32S, S33F, L93H

Absorbance 450 nm Mouse α5β1 [2]: 0.0619
Absorbance 450 nm Human α4β1 (rh-α4β1): 0.0608
Selected Human α5 Specific [3]: Yes
B4: A2-9A11: hybridoma clone positive on K562 cells (antibody, V domains shown)
VH: B2 VH
VL: B1 VL with R28S, L34F, I49L

IC50 (U87MG cell line): 0.12 µg/mL
B5: A-15B08 IgG4 Chimera (antibody, V domains shown)
VH: B1 VH with A62T
VL: B1 VL

IC50 (U87MG cell line): 0.27 µg/mL
% Inhibition [1]: 25%
Cell Counts (Curve Bottom) [1]: 28800 cells
Cell Counts (Curve Top) [1]: 38200 cells
B6: A2-7A05 IgG4 Chimera (antibody, V domains shown)
VH: QVQLQQPGAELVKPGASVKLSCKASGYTFTIYWINWVKQRPGQGLEWIGKIYPGSISTDYNEKFKSKATLTVDTSSSTAYMQLSSLTSDDSAVYYCAITGTGGLAYWGQGTLVTVSA
VL: ENVLTQSPAIMSASLGEKVTMTCRASSSVNYMYWYQQKSDASPKLWIYFTSSLAPGVPGRFSGSGSGNSYSLTISTMEGEDAATYYCQQFTTSPFTFGSGTKLEIK
